Key:
Test in all cases: two-hybrid library CCNG1;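 also: natural log of median RNA to DNA barcode read ratio; higher means stronger binding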
4H3364-bA = target: T1, 4H3364-bA
T1 chain: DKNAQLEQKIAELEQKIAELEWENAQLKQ

4H2233-bA = target: T2, 4H2233-bA
T2 chain: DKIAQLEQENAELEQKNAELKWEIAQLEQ

4H56-bA = target: T3, 4H56-bA
T3 chain: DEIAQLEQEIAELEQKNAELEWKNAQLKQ

4H2760-bA = target: T4, 4H2760-bA
T4 chain: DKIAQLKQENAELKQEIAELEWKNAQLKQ

4H2444-bA = target: T5, 4H2444-bA
T5 chain: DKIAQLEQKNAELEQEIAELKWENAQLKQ

4H2859-bA = target: T6, 4H2859-bA
T6 chain: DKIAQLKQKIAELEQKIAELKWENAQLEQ

4H3381-bA = target: T7, 4H3381-bA
T7 chain: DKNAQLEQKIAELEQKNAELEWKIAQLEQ

4H855-bH = target: T8, 4H855-bH
T8 chain: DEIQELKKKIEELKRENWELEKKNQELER

4H264-bA = target: T9, 4H264-bA
T9 chain: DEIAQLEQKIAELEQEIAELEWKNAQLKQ

4H235-bA = target: T10, 4H235-bA
T10 chain: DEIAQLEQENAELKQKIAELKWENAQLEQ

4H3041-bA = target: T11, 4H3041-bA
T11 chain: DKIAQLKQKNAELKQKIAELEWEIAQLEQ

4H932-bA = target: T12, 4H932-bA
T12 chain: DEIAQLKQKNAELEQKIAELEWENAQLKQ

4H349-bA = target: T13, 4H349-bA
T13 chain: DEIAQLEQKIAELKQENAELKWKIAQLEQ

4H3297-bA = target: T14, 4H3297-bA
T14 chain: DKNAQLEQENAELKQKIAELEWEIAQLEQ

4H2162-bA = target: T15, 4H2162-bA
T15 chain: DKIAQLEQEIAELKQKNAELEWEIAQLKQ

4H796-bA = target: T16, 4H796-bA
T16 chain: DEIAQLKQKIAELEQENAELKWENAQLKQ

4H949-bA = target: T17, 4H949-bA
T17 chain: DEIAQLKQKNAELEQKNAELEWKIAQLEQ

4H730-bA = target: T18, 4H730-bA
T18 chain: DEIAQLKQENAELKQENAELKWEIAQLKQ

4H2253-bA = target: T19, 4H2253-bA
T19 chain: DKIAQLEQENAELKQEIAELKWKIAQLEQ

4H2518-bA = target: T20, 4H2518-bA
T20 chain: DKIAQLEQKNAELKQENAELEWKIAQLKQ

4H2931-bA = target: T21, 4H2931-bA
T21 chain: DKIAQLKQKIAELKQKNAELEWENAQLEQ

4H2585-bA = target: T22, 4H2585-bA
T22 chain: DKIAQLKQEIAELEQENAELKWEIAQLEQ

4H797-bN = target: T23, 4H797-bN
T23 chain: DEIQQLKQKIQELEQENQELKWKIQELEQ

4H968-bN = target: T24, 4H968-bN
T24 chain: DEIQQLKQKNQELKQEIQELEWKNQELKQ

4H953-bN = target: T25, 4H953-bN
T25 chain: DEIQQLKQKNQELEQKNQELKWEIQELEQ

4H754-bN = target: T26, 4H754-bN
T26 chain: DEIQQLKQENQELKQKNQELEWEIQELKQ

4H346-bN = target: T27, 4H346-bN
T27 chain: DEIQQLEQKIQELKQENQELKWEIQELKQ

O15-bS = target: T28, O15-bS
T28 chain: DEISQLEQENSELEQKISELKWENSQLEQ

4H683-bN = target: T29, 4H683-bN
T29 chain: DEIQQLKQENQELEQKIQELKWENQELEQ

4H2702-bN = target: T30, 4H2702-bN
T30 chain: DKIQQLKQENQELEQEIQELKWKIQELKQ

4H575-bN = target: T31, 4H575-bN
T31 chain: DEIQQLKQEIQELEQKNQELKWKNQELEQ

4H118-bN = target: T32, 4H118-bN
T32 chain: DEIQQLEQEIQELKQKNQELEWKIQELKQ

4H780-bN = target: T33, 4H780-bN
T33 chain: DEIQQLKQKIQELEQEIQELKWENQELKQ

4H1831-bN = target: T34, 4H1831-bN
T34 chain: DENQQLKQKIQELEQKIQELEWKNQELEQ

4H855-bN = target: T35, 4H855-bN
T35 chain: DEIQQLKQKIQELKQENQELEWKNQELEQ

4H457-bN = target: T36, 4H457-bN
T36 chain: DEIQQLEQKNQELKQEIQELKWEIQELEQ

4H2586-bN = target: T37, 4H2586-bN
T37 chain: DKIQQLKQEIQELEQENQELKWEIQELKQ

4H3926-bN = target: T38, 4H3926-bN
T38 chain: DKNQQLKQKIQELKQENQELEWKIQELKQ

4H2673-bN = target: T39, 4H2673-bN
T39 chain: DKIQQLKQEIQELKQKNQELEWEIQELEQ

4H3010-bN = target: T40, 4H3010-bN
T40 chain: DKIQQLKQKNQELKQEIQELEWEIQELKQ

4H2627-bN = target: T41, 4H2627-bN
T41 chain: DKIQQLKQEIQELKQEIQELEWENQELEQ

4H3427-bN = target: T42, 4H3427-bN
T42 chain: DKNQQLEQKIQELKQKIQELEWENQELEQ

4H4073-bN = target: T43, 4H4073-bN
T43 chain: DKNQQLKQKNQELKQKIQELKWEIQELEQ

4H3112-bN = target: T44, 4H3112-bN
T44 chain: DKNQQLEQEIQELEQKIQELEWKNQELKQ

4H918-bN = target: T45, 4H918-bN
T45 chain: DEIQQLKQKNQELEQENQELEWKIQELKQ

4H170-bN = target: T46, 4H170-bN
T46 chain: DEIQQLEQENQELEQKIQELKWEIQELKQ

DKIAQLEQEIAELKQKNAELEWEIAQLKQ [4H2162-bA] gave an interaction score (4H3364-bA) of -0.464, an interaction score (4H2233-bA) of 0.431 and an interaction score (4H56-bA) of 0.371. The interaction score (4H2760-bA) was -0.382, the interaction score (4H2444-bA) was 0.102 and the interaction score (4H2859-bA) was 0.326. It also gave an interaction score (4H3381-bA) of -1.2, an interaction score (4H855-bH) of -2.4 and an interaction score (4H264-bA) of -1.08. The interaction score (4H235-bA) was 0.118, the interaction score (4H3041-bA) was 1.37 and the interaction score (4H932-bA) was -1.48. For the same binder, the interaction score (4H349-bA) was 0.82, the interaction score (4H3297-bA) was -0.125 and the interaction score (4H2162-bA) was 0.667. For the same binder, the interaction score (4H796-bA) was -1.31, the interaction score (4H949-bA) was -0.448 and the interaction score (4H730-bA) was 0.193. It also gave an interaction score (4H2253-bA) of -0.158, an interaction score (4H2518-bA) of 0.642 and an interaction score (4H2931-bA) of 1.13. For the same binder, the interaction score (4H2585-bA) was -0.85.

DEIQQLEQEIQELKQKNQELEWKIQELKQ [4H118-bN] was tested, and the interaction score (4H797-bN) was -0.885, the interaction score (4H968-bN) was 0.0583 and the interaction score (4H953-bN) was -0.648. It also gave an interaction score (4H754-bN) of -0.655, an interaction score (4H346-bN) of -0.129 and an interaction score (O15-bS) of -1.04. The interaction score (4H683-bN) was -0.936, the interaction score (4H2702-bN) was 0.0476 and the interaction score (4H575-bN) was -0.336. For the same binder, the interaction score (4H118-bN) was 0.139, the interaction score (4H780-bN) was -0.129 and the interaction score (4H1831-bN) was -0.392. For the same binder, the interaction score (4H855-bN) was 0.221, the interaction score (4H457-bN) was -1.63 and the interaction score (4H2586-bN) was 0.735. For the same binder, the interaction score (4H3926-bN) was 1.02, the interaction score (4H2673-bN) was 1.25 and the interaction score (4H3010-bN) was 2.35. The interaction score (4H2627-bN) was 0.463, the interaction score (4H3427-bN) was -0.395 and the interaction score (4H4073-bN) was -1.59. For the same binder, the interaction score (4H3112-bN) was -0.413, the interaction score (4H918-bN) was -0.314 and the interaction score (4H170-bN) was -1.27.

Reference: PMC10397247
